No end group written: not given here.

The experiment addresses T1, recombinant Clp1 (alone) (S. cerevisiae, UniProt Q08685 1-445).
T1 sequence (looked up): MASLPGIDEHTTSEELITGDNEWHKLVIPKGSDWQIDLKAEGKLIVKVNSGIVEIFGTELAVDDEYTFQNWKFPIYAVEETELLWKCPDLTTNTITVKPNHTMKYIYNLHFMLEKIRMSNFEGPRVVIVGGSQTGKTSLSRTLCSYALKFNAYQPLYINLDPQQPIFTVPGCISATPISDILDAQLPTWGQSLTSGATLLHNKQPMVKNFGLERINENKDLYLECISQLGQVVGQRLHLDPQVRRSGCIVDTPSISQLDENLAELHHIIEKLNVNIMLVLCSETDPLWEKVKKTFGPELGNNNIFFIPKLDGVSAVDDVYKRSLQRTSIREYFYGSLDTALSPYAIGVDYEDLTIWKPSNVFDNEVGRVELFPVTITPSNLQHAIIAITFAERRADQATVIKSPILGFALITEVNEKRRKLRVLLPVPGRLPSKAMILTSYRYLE
As to the kind of experiment: pull-down.

Regarding TTPISPDEEELGQRTAYHSKRDASTPLRS (peptide, UniProt P08518 915-943, looked up, also: biotin, site not given here) [biotinylated flap loop peptide (Rpb2 amino acids 915–943)], the binding result is recorded as “binds”.
